Patent US20220204580A1 (AstraZeneca / MedImmune, published 2022)
Numbered stars: 1 amine (or outer) side, 2 acyl side, 3 side chain; on linkers, the order of the positions; unused ones are H or OH. Bridge positions count the residues as written; N and C are the ends. Square brackets hold non-standard residues; d marks the D form. Side chains are listed from the residue outwards. Ends that are not written are not given here. * marks the point of attachment. C20 diacid = O=C(O)CCCCCCCCCCCCCCCCCCC(=O)*; C18 diacid = O=C(O)CCCCCCCCCCCCCCCCC(=O)*; γGlu = O=C(O)[C@H](CCC(=O)[*:2])N[*:1]; αMeF = C[C@](N)(Cc1ccccc1)C(=O)O; Dab = NCC[C@H](N)C(=O)O; Aib = CC(C)(N)C(=O)O

T1: human amylin receptor (calcitonin receptor co-expressed with receptor activity modifying protein, RAMP3) (human, UniProt P30988 25-474; O60896 24-148)
T1 sequence (looked up) 1: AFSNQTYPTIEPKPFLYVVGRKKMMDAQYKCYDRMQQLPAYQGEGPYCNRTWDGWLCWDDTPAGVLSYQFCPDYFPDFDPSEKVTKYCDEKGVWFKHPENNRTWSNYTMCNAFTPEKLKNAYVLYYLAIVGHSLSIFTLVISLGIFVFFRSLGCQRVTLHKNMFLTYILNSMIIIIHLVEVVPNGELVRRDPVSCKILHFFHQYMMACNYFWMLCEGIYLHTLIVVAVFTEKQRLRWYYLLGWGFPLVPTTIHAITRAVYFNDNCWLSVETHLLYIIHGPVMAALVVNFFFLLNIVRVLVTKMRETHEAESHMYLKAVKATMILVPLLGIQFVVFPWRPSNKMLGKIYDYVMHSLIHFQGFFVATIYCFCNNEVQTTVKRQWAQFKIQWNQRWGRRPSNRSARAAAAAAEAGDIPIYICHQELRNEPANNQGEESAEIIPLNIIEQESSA
T1 sequence (looked up) 2: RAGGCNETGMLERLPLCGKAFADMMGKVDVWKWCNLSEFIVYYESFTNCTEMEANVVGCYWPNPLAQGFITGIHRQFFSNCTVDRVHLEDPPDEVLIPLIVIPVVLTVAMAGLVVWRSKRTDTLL

T2: human calcitonin receptor (human, UniProt P30988 25-474)
T2 sequence (looked up): T1 sequence (looked up) 1

B1: Peptide 126 (SEQ ID NO: 126) (peptide)
peptide: K([γGlu-C18 diacid])KCNTATCATQRLANFL[Aib]HSS[Dab]NFGPILPPTNVGSNTY-NH2
modifications: disulfide 3-8; N-terminus assumed
SMILES: CC[C@H](C)[C@H](NC(=O)[C@@H]1CCCN1C(=O)CNC(=O)[C@H](Cc1ccccc1)NC(=O)[C@H](CC(N)=O)NC(=O)[C@H](CCN)NC(=O)[C@H](CO)NC(=O)[C@H](CO)NC(=O)[C@H](Cc1c[nH]cn1)NC(=O)C(C)(C)NC(=O)[C@H](CC(C)C)NC(=O)[C@H](Cc1ccccc1)NC(=O)[C@H](CC(N)=O)NC(=O)[C@H](C)NC(=O)[C@H](CC(C)C)NC(=O)[C@H](CCCNC(=N)N)NC(=O)[C@H](CCC(N)=O)NC(=O)[C@@H](NC(=O)[C@H](C)NC(=O)[C@@H]1CSSC[C@H](NC(=O)[C@H](CCCCN)NC(=O)[C@@H](N)CCCCNC(=O)CC[C@H](NC(=O)CCCCCCCCCCCCCCCCC(=O)O)C(=O)O)C(=O)N[C@@H](CC(N)=O)C(=O)N[C@@H]([C@@H](C)O)C(=O)N[C@@H](C)C(=O)N[C@@H]([C@@H](C)O)C(=O)N1)[C@@H](C)O)C(=O)N[C@@H](CC(C)C)C(=O)N1CCC[C@H]1C(=O)N1CCC[C@H]1C(=O)N[C@H](C(=O)N[C@@H](CC(N)=O)C(=O)N[C@H](C(=O)NCC(=O)N[C@@H](CO)C(=O)N[C@@H](CC(N)=O)C(=O)N[C@H](C(=O)N[C@@H](Cc1ccc(O)cc1)C(N)=O)[C@@H](C)O)C(C)C)[C@@H](C)O
B2: Peptide 125 (SEQ ID NO: 125) (peptide)
peptide: K([γGlu-γGlu-C20 diacid])CNTATCATQRLANFLVHSS[Aib]NFPAILSPTNVGS[Dab]TY-NH2
modifications: disulfide 2-7; N-terminus assumed
SMILES: CC[C@H](C)[C@H](NC(=O)[C@H](C)NC(=O)[C@@H]1CCCN1C(=O)[C@H](Cc1ccccc1)NC(=O)[C@H](CC(N)=O)NC(=O)C(C)(C)NC(=O)[C@H](CO)NC(=O)[C@H](CO)NC(=O)[C@H](Cc1c[nH]cn1)NC(=O)[C@@H](NC(=O)[C@H](CC(C)C)NC(=O)[C@H](Cc1ccccc1)NC(=O)[C@H](CC(N)=O)NC(=O)[C@H](C)NC(=O)[C@H](CC(C)C)NC(=O)[C@H](CCCNC(=N)N)NC(=O)[C@H](CCC(N)=O)NC(=O)[C@@H](NC(=O)[C@H](C)NC(=O)[C@@H]1CSSC[C@H](NC(=O)[C@@H](N)CCCCNC(=O)CC[C@H](NC(=O)CC[C@H](NC(=O)CCCCCCCCCCCCCCCCCCC(=O)O)C(=O)O)C(=O)O)C(=O)N[C@@H](CC(N)=O)C(=O)N[C@@H]([C@@H](C)O)C(=O)N[C@@H](C)C(=O)N[C@@H]([C@@H](C)O)C(=O)N1)[C@@H](C)O)C(C)C)C(=O)N[C@@H](CC(C)C)C(=O)N[C@@H](CO)C(=O)N1CCC[C@H]1C(=O)N[C@H](C(=O)N[C@@H](CC(N)=O)C(=O)N[C@H](C(=O)NCC(=O)N[C@@H](CO)C(=O)N[C@@H](CCN)C(=O)N[C@H](C(=O)N[C@@H](Cc1ccc(O)cc1)C(N)=O)[C@@H](C)O)C(C)C)[C@@H](C)O
B3: Peptide 128 (SEQ ID NO: 128) (peptide)
peptide: K([γGlu-C18 diacid])KCNTATCATQRLAEFL[Aib]HSSNNFGPILPPTNVGSNTY-NH2
modifications: disulfide 3-8; N-terminus assumed
SMILES: CC[C@H](C)[C@H](NC(=O)[C@@H]1CCCN1C(=O)CNC(=O)[C@H](Cc1ccccc1)NC(=O)[C@H](CC(N)=O)NC(=O)[C@H](CC(N)=O)NC(=O)[C@H](CO)NC(=O)[C@H](CO)NC(=O)[C@H](Cc1c[nH]cn1)NC(=O)C(C)(C)NC(=O)[C@H](CC(C)C)NC(=O)[C@H](Cc1ccccc1)NC(=O)[C@H](CCC(=O)O)NC(=O)[C@H](C)NC(=O)[C@H](CC(C)C)NC(=O)[C@H](CCCNC(=N)N)NC(=O)[C@H](CCC(N)=O)NC(=O)[C@@H](NC(=O)[C@H](C)NC(=O)[C@@H]1CSSC[C@H](NC(=O)[C@H](CCCCN)NC(=O)[C@@H](N)CCCCNC(=O)CC[C@H](NC(=O)CCCCCCCCCCCCCCCCC(=O)O)C(=O)O)C(=O)N[C@@H](CC(N)=O)C(=O)N[C@@H]([C@@H](C)O)C(=O)N[C@@H](C)C(=O)N[C@@H]([C@@H](C)O)C(=O)N1)[C@@H](C)O)C(=O)N[C@@H](CC(C)C)C(=O)N1CCC[C@H]1C(=O)N1CCC[C@H]1C(=O)N[C@H](C(=O)N[C@@H](CC(N)=O)C(=O)N[C@H](C(=O)NCC(=O)N[C@@H](CO)C(=O)N[C@@H](CC(N)=O)C(=O)N[C@H](C(=O)N[C@@H](Cc1ccc(O)cc1)C(N)=O)[C@@H](C)O)C(C)C)[C@@H](C)O
B4: Peptide 127 (SEQ ID NO: 127) (peptide)
peptide: K([γGlu-γGlu-C18 diacid])CNTATCATQRLANFL[Aib]HSSNNFGPILPPTNVGSNTY-NH2
modifications: disulfide 2-7; N-terminus assumed
SMILES: CC[C@H](C)[C@H](NC(=O)[C@@H]1CCCN1C(=O)CNC(=O)[C@H](Cc1ccccc1)NC(=O)[C@H](CC(N)=O)NC(=O)[C@H](CC(N)=O)NC(=O)[C@H](CO)NC(=O)[C@H](CO)NC(=O)[C@H](Cc1c[nH]cn1)NC(=O)C(C)(C)NC(=O)[C@H](CC(C)C)NC(=O)[C@H](Cc1ccccc1)NC(=O)[C@H](CC(N)=O)NC(=O)[C@H](C)NC(=O)[C@H](CC(C)C)NC(=O)[C@H](CCCNC(=N)N)NC(=O)[C@H](CCC(N)=O)NC(=O)[C@@H](NC(=O)[C@H](C)NC(=O)[C@@H]1CSSC[C@H](NC(=O)[C@@H](N)CCCCNC(=O)CC[C@H](NC(=O)CC[C@H](NC(=O)CCCCCCCCCCCCCCCCC(=O)O)C(=O)O)C(=O)O)C(=O)N[C@@H](CC(N)=O)C(=O)N[C@@H]([C@@H](C)O)C(=O)N[C@@H](C)C(=O)N[C@@H]([C@@H](C)O)C(=O)N1)[C@@H](C)O)C(=O)N[C@@H](CC(C)C)C(=O)N1CCC[C@H]1C(=O)N1CCC[C@H]1C(=O)N[C@H](C(=O)N[C@@H](CC(N)=O)C(=O)N[C@H](C(=O)NCC(=O)N[C@@H](CO)C(=O)N[C@@H](CC(N)=O)C(=O)N[C@H](C(=O)N[C@@H](Cc1ccc(O)cc1)C(N)=O)[C@@H](C)O)C(C)C)[C@@H](C)O
B5: Peptide 130 (SEQ ID NO: 130) (peptide)
peptide: K([γGlu-C18 diacid])KCNTATCATQRLAEFL[Aib]HSSHNFGPILPPTNVGSNTY-NH2
modifications: disulfide 3-8; N-terminus assumed
SMILES: CC[C@H](C)[C@H](NC(=O)[C@@H]1CCCN1C(=O)CNC(=O)[C@H](Cc1ccccc1)NC(=O)[C@H](CC(N)=O)NC(=O)[C@H](Cc1c[nH]cn1)NC(=O)[C@H](CO)NC(=O)[C@H](CO)NC(=O)[C@H](Cc1c[nH]cn1)NC(=O)C(C)(C)NC(=O)[C@H](CC(C)C)NC(=O)[C@H](Cc1ccccc1)NC(=O)[C@H](CCC(=O)O)NC(=O)[C@H](C)NC(=O)[C@H](CC(C)C)NC(=O)[C@H](CCCNC(=N)N)NC(=O)[C@H](CCC(N)=O)NC(=O)[C@@H](NC(=O)[C@H](C)NC(=O)[C@@H]1CSSC[C@H](NC(=O)[C@H](CCCCN)NC(=O)[C@@H](N)CCCCNC(=O)CC[C@H](NC(=O)CCCCCCCCCCCCCCCCC(=O)O)C(=O)O)C(=O)N[C@@H](CC(N)=O)C(=O)N[C@@H]([C@@H](C)O)C(=O)N[C@@H](C)C(=O)N[C@@H]([C@@H](C)O)C(=O)N1)[C@@H](C)O)C(=O)N[C@@H](CC(C)C)C(=O)N1CCC[C@H]1C(=O)N1CCC[C@H]1C(=O)N[C@H](C(=O)N[C@@H](CC(N)=O)C(=O)N[C@H](C(=O)NCC(=O)N[C@@H](CO)C(=O)N[C@@H](CC(N)=O)C(=O)N[C@H](C(=O)N[C@@H](Cc1ccc(O)cc1)C(N)=O)[C@@H](C)O)C(C)C)[C@@H](C)O

Target: T1, human amylin receptor (calcitonin …)
Assay: cell-based or functional assay

Point of comparison: B1, “EC50 (cAMP production)” value 445 pM. Against it:
- B2 — 2.7-fold higher, 1200 pM
- K([γGlu-C18 diacid])KCNTATCATQRLANFLVHSSNN[αMeF]GPILPPTNVGSNTY-NH2 (disulfide 3-8) [Peptide 14 (SEQ ID NO: 14)] — 2-fold lower, 220 pM
- B3 — 3.8-fold lower, 118 pM
- B4 — within 1.5-fold, 364 pM
- B5 — within 1.5-fold, 446 pM

Point of comparison: K([γGlu-C18 diacid])KCNTATCATQRLANFLVHSSNN[αMeF]GPILPPTNVGSNTY-NH2 (disulfide 3-8) [Peptide 14 (SEQ ID NO: 14)], “Ratio (EC50 hCTR / EC50 hAMYR3)” value 6. Against it:
- B1 — higher, 19
- B2 — higher, 8
- B3 — lower, 4.8
- B4 — higher, 19.6
- B5 — higher, 15

Target: T2, human calcitonin receptor
Assay: cell-based or functional assay

Point of comparison: B1, “EC50 (cAMP production)” value 8.45 nM. Against it:
- B2 — within 1.5-fold, 10.2 nM
- K([γGlu-C18 diacid])KCNTATCATQRLANFLVHSSNN[αMeF]GPILPPTNVGSNTY-NH2 (disulfide 3-8) [Peptide 14 (SEQ ID NO: 14)] — 6.3-fold lower, 1.35 nM
- B3 — 15-fold lower, 0.568 nM
- B4 — within 1.5-fold, 7.13 nM
- B5 — within 1.5-fold, 6.69 nM
